Bridge positions count the residues as written; N and C are the ends. Square brackets hold non-standard residues; d marks the D form. Peptide text beside a SMILES is read from it. * marks the point of attachment. NOTA = O=C(O)CN1CCN(CC(=O)O)CCN(CC(=O)*)CC1; Nle = CCCC[C@H](N)C(=O)O; AEEA = NCCOCCOCC(=O)O
Assay: in vivo
Set-up: species or system Sprague-Dawley rats
Conditions: Sprague-Dawley, rat, iv, total radioactivity
Method: Sixteen male (n = 10; 363.3 ± 19.6 g) and female (n = 6; 199.2 ± 5.5 g) Sprague–Dawley rats were used for ex vivo organ distribution of the [^68Ga]Ga-NO2A-[Nle13]-Col for the subsequent extrapolation and calculation of human dosimetry. The male and female animals were administered into the tail vein with, respectively, 2.3 ± 0.8 MBq and 1.4 ± 0.5 MBq, sacrificed at 5, 10, 30, 40, 60, and 120 min post administration, and the organs were harvested, weighted, and measured for their radioactivity content. Samples from the blood, heart, lung, liver, spleen, adrenal glands, kidneys, intestines with or without contents, muscle, testis, bone, brain, pancreas, urine bladder, and bone marrow were collected. To monitor radioactivity elimination and recovery, the radioactivity of the remaining carcass was also measured. The radioactivity measurements were corrected for decay and converted into standardized uptake values (SUVs, Table S2) according to Equation (2), wherein the radioactivity is expressed in MBq and the weight in grams:(2) SUV=Radioactivityorgan∗weightrat/Radioactivityinjected∗weightorgan

[1] = female, 1.4 MBq, SUV bladder (UB)
[2] = female, 1.4 MBq, SUV blood (BL)
[3] = female, 1.4 MBq, SUV brain (BR)
[4] = female, 1.4 MBq, SUV heart (HE)
[5] = female, 1.4 MBq, SUV liver (LI)
[6] = female, 1.4 MBq, SUV lungs (LU)
[7] = female, 1.4 MBq, SUV muscle (MU)
[8] = female, 1.4 MBq, SUV red bone marrow (BM)
[9] = female, 1.4 MBq, SUV spleen (SP)
[10] = female, SUV large intestine without content (INL-)
[11] = female, SUV small intestine with its content (INS+)

CCCC[C@@H]1NC(=O)[C@H](C(C)C)NC(=O)[C@H](CCCNC(=N)N)NC(=O)CNC(=O)[C@@H]2CCCN2C(=O)[C@@H](NC(=O)COCCOCCNC(=O)CN2CCN(CC(=O)O)CCN(CC(=O)O)CC2)CSSC[C@@H](C(=O)O)NC(=O)[C@@H]2CCCN2C(=O)CNC(=O)[C@H](CCC(=O)O)NC(=O)[C@H](CC(=O)O)NC(=O)[C@H](CC(=O)O)NC(=O)CNC(=O)[C@H](CC(C)C)NC(=O)[C@H](Cc2c[nH]cn2)NC(=O)[C@H](CC(C)C)NC(=O)CNC(=O)[C@H](Cc2c[nH]cn2)NC1=O [[^68Ga]Ga-NO2A-[Nle^13]-Col, [^68Ga]Ga-NOTA-PEG2-c[CPGRVNleHGLHLGDDEGPC], metal not drawn] ({NOTA-AEEA}-CPGRV[Nle]HGLHLGDDEGPC-OH; disulfide 1-18)
SUV at 2 h (SUV of adrenal glands, bone marrow and urinary bladder): < 0.25 SUV | SUV at 1 h (SUV of all vital organs): < 0.2 SUV | SUV at 2 h (SUV of the remainder of the organs): < 0.1 SUV | SUV at 2 h (both sexes, SUV of most of the organs): < 0.25 SUV | SUV at 5 min [1]: 4.88 SUV | SUV at 10 min [1]: 6.96 SUV | SUV at 0.5 h [1]: 5.83 SUV | SUV at 40 min [1]: 0.843 SUV | SUV at 1 h [1]: 1.08 SUV | SUV at 2 h [1]: 0.321 SUV | SUV at 10 min [2]: 1.42 SUV | SUV at 0.5 h [2]: 0.497 SUV | SUV at 40 min [2]: 0.432 SUV | SUV at 1 h [2]: 0.217 SUV | SUV at 2 h [2]: 0.0412 SUV | SUV at 5 min (female, 1.4 MBq, SUV bone (BO)): 0.391 SUV | SUV at 10 min (female, 1.4 MBq, SUV bone (BO)): 0.403 SUV | SUV at 0.5 h (female, 1.4 MBq, SUV bone (BO)): 0.179 SUV | SUV at 40 min (female, 1.4 MBq, SUV bone (BO)): 0.106 SUV | SUV at 1 h (female, 1.4 MBq, SUV bone (BO)): 0.064 SUV | SUV at 2 h (female, 1.4 MBq, SUV bone (BO)): 0.031 SUV | SUV at 5 min [3]: 0.073 SUV | SUV at 10 min [3]: 0.0964 SUV | SUV at 0.5 h [3]: 0.0189 SUV | SUV at 40 min [3]: 0.0174 SUV | SUV at 1 h [3]: 0.0149 SUV | SUV at 2 h [3]: 0.0062 SUV | SUV at 5 min [4]: 0.741 SUV | SUV at 10 min [4]: 0.68 SUV | SUV at 0.5 h [4]: 0.207 SUV | SUV at 40 min [4]: 0.18 SUV | SUV at 1 h [4]: 0.104 SUV | SUV at 2 h [4]: 0.026 SUV | SUV at 5 min [5]: 0.438 SUV | SUV at 10 min [5]: 0.452 SUV | SUV at 0.5 h [5]: 0.171 SUV | SUV at 40 min [5]: 0.147 SUV | SUV at 1 h [5]: 0.114 SUV | SUV at 2 h [5]: 0.0889 SUV | SUV at 5 min [6]: 1.12 SUV | SUV at 10 min [6]: 0.986 SUV | SUV at 0.5 h [6]: 0.385 SUV | SUV at 40 min [6]: 0.427 SUV | SUV at 1 h [6]: 0.276 SUV | SUV at 2 h [6]: 0.0631 SUV | SUV at 5 min [7]: 0.514 SUV | SUV at 10 min [7]: 0.295 SUV | SUV at 0.5 h [7]: 0.214 SUV | SUV at 40 min [7]: 0.0802 SUV | SUV at 1 h [7]: 0.0488 SUV | SUV at 2 h [7]: 0.0213 SUV | SUV at 2 h (female, 1.4 MBq, SUV ovarian (OV)): 0.124 SUV | SUV at 5 min [8]: 0.484 SUV | SUV at 10 min [8]: 0.443 SUV | SUV at 0.5 h [8]: 0.162 SUV | SUV at 40 min [8]: 0.769 SUV | SUV at 1 h [8]: 0.113 SUV | SUV at 2 h [8]: 0.343 SUV | SUV at 5 min [9]: 0.423 SUV | SUV at 10 min [9]: 0.354 SUV | SUV at 0.5 h [9]: 0.174 SUV | SUV at 40 min [9]: 0.135 SUV | SUV at 1 h [9]: 0.0938 SUV | SUV at 5 min (female, SUV adrenals (AD)): 0.724 SUV | SUV at 10 min (female, SUV adrenals (AD)): 1.29 SUV | SUV at 0.5 h (female, SUV adrenals (AD)): 0.0127 SUV | SUV at 40 min (female, SUV adrenals (AD)): 0.25 SUV | SUV at 1 h (female, SUV adrenals (AD)): 0.198 SUV | SUV at 2 h (female, SUV adrenals (AD)): 0.128 SUV | SUV at 5 min (female, SUV blood (BL)): 2.06 SUV | SUV at 5 min (female, SUV kidneys (KI)): 12.1 SUV | SUV at 10 min (female, SUV kidneys (KI)): 11.3 SUV | SUV at 0.5 h (female, SUV kidneys (KI)): 6.32 SUV | SUV at 40 min (female, SUV kidneys (KI)): 12.9 SUV | SUV at 1 h (female, SUV kidneys (KI)): 12.8 SUV | SUV at 2 h (female, SUV kidneys (KI)): 9.08 SUV | SUV at 5 min [10]: 0.569 SUV | SUV at 10 min [10]: 0.91 SUV | SUV at 0.5 h [10]: 0.193 SUV | SUV at 40 min [10]: 0.211 SUV | SUV at 1 h [10]: 0.103 SUV | SUV at 2 h [10]: 0.046 SUV | SUV at 5 min (female, SUV ovarian (OV)): 0.927 SUV | SUV at 10 min (female, SUV ovarian (OV)): 1.87 SUV | SUV at 0.5 h (female, SUV ovarian (OV)): 0.341 SUV | SUV at 40 min (female, SUV ovarian (OV)): 0.335 SUV | SUV at 1 h (female, SUV ovarian (OV)): 0.159 SUV | SUV at 5 min (female, SUV pancreas (PA)): 0.439 SUV | SUV at 10 min (female, SUV pancreas (PA)): 0.361 SUV | SUV at 0.5 h (female, SUV pancreas (PA)): 0.164 SUV | SUV at 40 min (female, SUV pancreas (PA)): 0.0609 SUV | SUV at 1 h (female, SUV pancreas (PA)): 0.0659 SUV | SUV at 2 h (female, SUV pancreas (PA)): 0.029 SUV | SUV at 5 min [11]: 0.436 SUV | SUV at 10 min [11]: 0.558 SUV | SUV at 0.5 h [11]: 0.277 SUV | SUV at 40 min [11]: 0.165 SUV | SUV at 1 h [11]: 0.129 SUV | SUV at 2 h [11]: 0.0343 SUV
